This passage reports SPR response in the specificity test and change in Resonance Unit results from paper PMC9776105.

The test addresses single chain variable fragment (scFv) from the CR3022 antibody with a cysteine-containing linker. The test can be described thus: SPR. In general terms: Surface plasmon resonance follows binding to a sensor surface in real time, without labels.

Consider “Spike Receptor Binding Domain SARS-CoV-2 (from UniProt P0DTC2) (domain or fragment)”, for which the SPR response in the specificity test stood at 4.22 ru, the change in Resonance Unit at 50 ng/mL RBD turned out to be 1.13 RU, the change in Resonance Unit at 100 ng/mL RBD is 3.01 RU and the change in Resonance Unit at 150 ng/mL RBD turned out to be 3.74 RU. The substance further showed a change in Resonance Unit at 200 ng/mL RBD of 3.98 RU.
